Patent publication US20100048462A1, “TRUNCATED PTH PEPTIDES WITH A CYCLIC CONFORMATION” (Zealand Pharma A/S, priority 2006, published 2010)
Values belong to the molecule of their own block, whether it stands above or below them. Bridge positions count the residues as written; N and C are the ends. Square brackets hold non-standard residues; d marks the D form. hArg = N=C(N)NCCCC[C@H](N)C(=O)O; Met(O) = CS(=O)CC[C@H](N)C(=O)O; Ac5c = NC1(C(=O)O)CCCC1; Abu = CC[C@H](N)C(=O)O; Aib = CC(C)(N)C(=O)O

Target: Saos-2 PTH1R (UniProt Q03431)
Test: cell-based or functional assay

- Emax, cAMP efficacy assay in Saos-2 cells (6T, trifluoroacetate salt) (relative to control (SEQ ID NO: 32)): 1.5
- pEC50, cAMP efficacy assay in Saos-2 cells (6T, trifluoroacetate salt): 6.9 -log(M)
Molecule: H-Ac5c-Val-Aib-Glu-Ile-Gln-Leu-Met-His-Gln-Har-Ala-Asp( )-Trp-Leu-Asn-Lys( )-NH2 (peptide)

- Emax, cAMP efficacy assay in Saos-2 cells (26T, trifluoroacetate salt) (relative to control (SEQ ID NO: 32)): 1.08
- pEC50, cAMP efficacy assay in Saos-2 cells (26T, trifluoroacetate salt): 7.9 -log(M)
Molecule: H-Ac5c-Val-Aib-Glu-Ile-Gln-Leu-Met-His-Gln-Har-Ala-Lys( )-Phe-Leu-Asn-Asp( )-NH2 (peptide)

- Emax, cAMP efficacy assay in Saos-2 cells (10T, trifluoroacetate salt) (relative to control (SEQ ID NO: 32)): 1.08
- pEC50, cAMP efficacy assay in Saos-2 cells (10T, trifluoroacetate salt): 7.9 -log(M)
Molecule: H-Ac6c-Val-Aib-Glu-Ile-Gln-Leu-Leu-His-Gln-Har-Ala-Lys( )-Trp-Leu-Asn-Asp( )-NH2 (peptide)

Second part, the molecule before the results:

Molecule: H-Ac5c-Val-Nva-Glu-Ile-Gln-Leu-Leu-His-Gln-Har-Ala-Lys( )-Trp-Leu-Asn-Asp( )-NH2 (peptide)
- Emax, cAMP efficacy assay in Saos-2 cells (16T, trifluoroacetate salt) (relative to control (SEQ ID NO: 32)): 1.03
- pEC50, cAMP efficacy assay in Saos-2 cells (16T, trifluoroacetate salt): 6.92 -log(M)

Molecule: H-Nva-Val-Aib-Glu-Ile-Gln-Leu-Leu-His-Gln-Har-Ala-Lys( )-Trp-Leu-Asn-Asp( )-NH2 (peptide)
- Emax, cAMP efficacy assay in Saos-2 cells (12T, trifluoroacetate salt) (relative to control (SEQ ID NO: 32)): 1.04
- pEC50, cAMP efficacy assay in Saos-2 cells (12T, trifluoroacetate salt): 6.99 -log(M)

Molecule: H-[Ac5c]V[Aib]EIQLMHQ[hArg]AKWLND-OH
- Emax, cAMP efficacy assay in Saos-2 cells (38T, trifluoroacetate salt) (relative to control (SEQ ID NO: 32)): 1.2
- pEC50, cAMP efficacy assay in Saos-2 cells (38T, trifluoroacetate salt): 7 -log(M)

B1: H-Ac5c-Val-Aib-Glu-Ile-Gln-Leu-Met(O)-His-Gln-Har-Ala-Lys( )-Trp-Leu-Asn-Asp( )-NH2 (peptide)
chain: H-[Ac5c]V[Aib]EIQL[Met(O)]HQ[hArg]AKWLND-NH2
modifications: lactam 13-17
- Emax, cAMP efficacy assay in Saos-2 cells (40T, trifluoroacetate salt) (relative to control (SEQ ID NO: 32)): 1.1
- pEC50, cAMP efficacy assay in Saos-2 cells (40T, trifluoroacetate salt): 6.9 -log(M)

B2: H-Ac5c-Val-Aib-Glu-Ile-Gln-Leu-Leu-His-Gln-Har-Ala-Lys( )-Trp-Leu-Asn-Asp( )-OH (peptide)
chain: H-[Ac5c]V[Aib]EIQLLHQ[hArg]AKWLND-OH
modifications: lactam 13-17
SMILES: CC[C@H](C)[C@H](NC(=O)[C@H](CCC(=O)O)NC(=O)C(C)(C)NC(=O)[C@@H](NC(=O)C1(N)CCCC1)C(C)C)C(=O)N[C@@H](CCC(N)=O)C(=O)N[C@@H](CC(C)C)C(=O)N[C@@H](CC(C)C)C(=O)N[C@@H](Cc1c[nH]cn1)C(=O)N[C@@H](CCC(N)=O)C(=O)N[C@@H](CCCCNC(=N)N)C(=O)N[C@@H](C)C(=O)N[C@H]1CCCCNC(=O)C[C@@H](C(=O)O)NC(=O)[C@H](CC(N)=O)NC(=O)[C@H](CC(C)C)NC(=O)[C@H](Cc2c[nH]c3ccccc23)NC1=O
- Emax, cAMP efficacy assay in Saos-2 cells (5T, trifluoroacetate salt) (relative to control (SEQ ID NO: 32)): 1.16
- pEC50, cAMP efficacy assay in Saos-2 cells (5T, trifluoroacetate salt): 7.14 -log(M)

B3: H-Abu-Val-Aib-Glu-Ile-Gln-Leu-Leu-His-Gln-Har-Ala-Lys( )-Trp-Leu-Asn-Asp( )-NH2 (peptide)
chain: H-[Abu]V[Aib]EIQLLHQ[hArg]AKWLND-NH2
modifications: lactam 13-17
SMILES: CC[C@H](N)C(=O)N[C@H](C(=O)NC(C)(C)C(=O)N[C@@H](CCC(=O)O)C(=O)N[C@H](C(=O)N[C@@H](CCC(N)=O)C(=O)N[C@@H](CC(C)C)C(=O)N[C@@H](CC(C)C)C(=O)N[C@@H](Cc1c[nH]cn1)C(=O)N[C@@H](CCC(N)=O)C(=O)N[C@@H](CCCCNC(=N)N)C(=O)N[C@@H](C)C(=O)N[C@H]1CCCCNC(=O)C[C@@H](C(N)=O)NC(=O)[C@H](CC(N)=O)NC(=O)[C@H](CC(C)C)NC(=O)[C@H](Cc2c[nH]c3ccccc23)NC1=O)[C@@H](C)CC)C(C)C
- Emax, cAMP efficacy assay in Saos-2 cells (11T, trifluoroacetate salt) (relative to control (SEQ ID NO: 32)): 1.04
- pEC50, cAMP efficacy assay in Saos-2 cells (11T, trifluoroacetate salt): 7.17 -log(M)
